The source of these data is the supplement of paper PMC12764529.

The nature of data set [1]: folding stability dG unfold from chymotrypsin proteolysis; higher = more stable. The essentials:
(§1)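 K50 was inferred by Bayesian fitting of sequencing counts obtained after protease digestion of designed mini-proteins. Unfolding free energy was derived by comparison with a sequence-predicted unfolded-state K50 and a shared folded-state K50, for each protease or both combined. The mini-proteins were under 80 residues, had no cysteine, were carried in a PA-tagged cDNA display construct, and were kept only if AlphaFold2 dimer inter-PAE exceeded 15.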

A short description of data set [2]: folding stability dG unfold from trypsin proteolysis; higher = more stable. A digest of the protocol: as §1
Data set [3] can be described thus: folding stability dG unfold (combined trypsin and chymotrypsin); higher = more stable. The essentials: as §1

± gives the half width of the 95% confidence interval.

For “SAGGSAGGSALPEAEVLEVRFSPDGRRVDAVLRLDGELLVLRIDFPPDGTARIELYPAEDISAGGSAGGSAG [r3_167_TrMRF]”, the entries for the “folding stability dG unfold” value in data set [1], in data set [2] and in data set [3] were 2.43 ± 0.068 kcal/mol, 1.05 ± 0.065 kcal/mol and 2.07 ± 0.13 kcal/mol, respectively.

Regarding “SAGGSAGGSAMEILSKEIIPNNDLIIIDIKVKKKNKEYIYKLIIKGDKIIKISEIEIDDAPSAGGSAGGSAG [r3_48_TrMRF]”, the “folding stability dG unfold” value stood at 2.5 ± 0.081 kcal/mol in data set [1], 1.37 ± 0.13 kcal/mol in data set [2] and 2.15 ± 0.26 kcal/mol in data set [3].

For the sequence “SAGGSAGGSAMIEISSYTLPNGELVVEVTIPDPNSDKTTTLRGKYSSLEEAREEAEKLYLQSAGGSAGGSAG [r3_174_JUSTAS]”, the “folding stability dG unfold” value was 1.84 ± 0.12 kcal/mol in data set [1], 1.52 ± 0.051 kcal/mol in data set [2] and 1.69 ± 0.12 kcal/mol in data set [3].

With “SAGGSAGGSAMITTYDPKTGLVYELVPDPVPGVGVERLVVRVVTVEEFPDAIVRKVEVRPESAGGSAGGSAG [r3_409_JUSTAS]”, the “folding stability dG unfold” value is 1.01 ± 0.074 kcal/mol in data set [1], -0.211 ± 0.22 kcal/mol in data set [2] and 0.67 ± 0.14 kcal/mol in data set [3].

Regarding “SAGGSAGGSAMIVKEFVTYDPSTGTRTRTTVTLELYDSPEGGAVVVLEEEVDPVGPLPPLESAGGSAGGSAG [r3_397_JUSTAS]”, the “folding stability dG unfold” value turned out to be 0.000665 ± 0.17 kcal/mol in data set [1], 0.704 ± 0.062 kcal/mol in data set [2] and 0.323 ± 0.12 kcal/mol in data set [3].

On to “SAGGSAGGSAMKIEIEVDPKTNVIYIRVNGLVYRFTKSEDGYIYIEVYDKNGKLIETFRLKLSAGGSAGGSA [r18_333_TrROS_Hall]”, for which the “folding stability dG unfold” value in data set [1] was determined as 4.83 ± 0.1 kcal/mol; in data set [2], 3.52 ± 0.13 kcal/mol; in data set [3], 4.4 ± 0.18 kcal/mol.

With “SAGGSAGGSAMKILSVTEEVLPNGTRVVRVTVKLPTPKTREIVVSPEVVEAGRLDEVVEELLSAGGSAGGSA [r18_129_JUSTAS]”, the results for the “folding stability dG unfold” value in data set [1], in data set [2] and in data set [3] were 1.82 ± 0.031 kcal/mol, 1.38 ± 0.033 kcal/mol and 1.66 ± 0.062 kcal/mol, respectively.

Take “SAGGSAGGSAMKLEVFPVPDGQIAVFEDADGNIRVIGVPEPNLSISDIAKIALDLGADSVELSAGGSAGGSA [r18_83_TrMRF]”: the “folding stability dG unfold” value was -0.45 ± 0.21 kcal/mol in data set [1], 0.451 ± 0.053 kcal/mol in data set [2] and 0.155 ± 0.16 kcal/mol in data set [3].

Take “SAGGSAGGSAMKPVPFEVLSVSYPVLPNGTRIRLVEIKFPETGEVKWIELSPDDPVIKALLSAGGSAGGSAG [r3_57_JUSTAS]”: the entries for the “folding stability dG unfold” value in data set [1], in data set [2] and in data set [3] were 1.899 ± 0.011 kcal/mol, 2.27 ± 0.029 kcal/mol and 2.06 ± 0.086 kcal/mol, respectively.

As to “SAGGSAGGSAMKTFTKTFSSPEEAERAAEEIKEKLEKEGKKVKITFEKPETDTYIVTITIESAGGSAGGSAG [r3_211_JUSTAS]”, the “folding stability dG unfold” value worked out at 3.93 ± 0.12 kcal/mol in data set [1], 3.44 ± 0.16 kcal/mol in data set [2] and 3.82 ± 0.19 kcal/mol in data set [3].

For the sequence “SAGGSAGGSAMKTLVIEGLSLEEIEELAKEIPGKTVRIVFKDGSVITIYPDGKIEIEPLPESAGGSAGGSAG [r3_269_TrROS_Hall]”, the “folding stability dG unfold” value in data set [1] worked out at 2.64 ± 0.031 kcal/mol; in data set [2], 1.75 ± 0.059 kcal/mol; in data set [3], 2.37 ± 0.054 kcal/mol.

For “SAGGSAGGSAMKTSSGTVSFPDSTVKLSYENFGDGSVKKSVVEVVSRPPPPPVPPSNPHYLQSAGGSAGGSA [r18_176_JUSTAS]”, the “folding stability dG unfold” value in data set [1] is 0.567 ± 0.22 kcal/mol; in data set [2] it was 0.667 ± 0.12 kcal/mol; in data set [3] it was 0.702 ± 0.39 kcal/mol.

For the sequence “SAGGSAGGSAMKVPLENVENPKKFPGTGLEIYTFTDKETGKKKIVLVEKPPNKGKKITVIESAGGSAGGSAG [r3_491_JUSTAS]”, the entries for the “folding stability dG unfold” value in data set [1], in data set [2] and in data set [3] were -0.146 ± 0.28 kcal/mol, 0.0339 ± 0.12 kcal/mol and 0.0523 ± 0.14 kcal/mol, respectively.

Regarding “SAGGSAGGSAMKVRVKIKITRGSKEYEEEFILPEEEIEKLKEEIPEDYEVEIVDKEPLVLKSAGGSAGGSAG [r3_195_JUSTAS]”, the “folding stability dG unfold” value in data set [1] worked out at 0.771 ± 0.16 kcal/mol; in data set [2], 0.129 ± 0.16 kcal/mol; in data set [3], 0.46 ± 0.27 kcal/mol.

For “SAGGSAGGSAMKVSTTPVTLPNGESATLETLPDGTKVLKVGDKYIVVYPSGEVKEVPLEELLSAGGSAGGSA [r18_379_JUSTAS]”, the “folding stability dG unfold” value in data set [1] was found to be 1.76 ± 0.046 kcal/mol; in data set [2], 1.43 ± 0.06 kcal/mol; in data set [3], 1.59 ± 0.12 kcal/mol.

With “SAGGSAGGSAMKYYVTITFTDPNNGNTTTEIKEVTTEEEVEKVVEELAPSSYASVKVSIKPKSAGGSAGGSA [r18_258_JUSTAS]”, the “folding stability dG unfold” value in data set [1] is 1.16 ± 0.28 kcal/mol; in data set [2] it was 0.304 ± 0.059 kcal/mol; in data set [3], 0.892 ± 0.2 kcal/mol.

On to “SAGGSAGGSAMLVIRVVTEDGEEREIEIPEGEELTLEEILAALRTPDGREVPIERVEIFPASAGGSAGGSAG [r3_465_TrROS_Hall]”, for which the “folding stability dG unfold” value is 1.75 ± 0.029 kcal/mol in data set [1], 2.04 ± 0.046 kcal/mol in data set [2] and 1.84 ± 0.11 kcal/mol in data set [3].

For the sequence “SAGGSAGGSAMPEPVLIVVEVESLEEAKKLAEELAVEGVKVEVDPESGLVKIEIEKESLLESAGGSAGGSAG [r3_186_TrMRF]”, the figures for the “folding stability dG unfold” value in data set [1], in data set [2] and in data set [3] were 1.23 ± 0.08 kcal/mol, 1.03 ± 0.092 kcal/mol and 1.12 ± 0.11 kcal/mol, respectively.
